Experimental data taken from US20060073572A1, “Cytokine structurally related to IL-17” (The Johns Hopkins University, priority 2001, published 2006).

Legend:
Assay type in all cases: cell-based, human
ICAM-1 = ICAM-1 surface protein expression on NHBE cells by flow cytometry; conditions: 100 ng/ml, 48 hours, mean±SD (n=4)
Procedure: FIG. 4. Effect of ML-1 on ICAM-1 surface expression on NHBE cells by Flow Cytometry. NHBE cells were treated for 48 hours under following conditions: medium only, rIL-17 (100 ng/ml), purified His-tagged protein (Positope, 100 ng/ml), or ML-1 (100 ng/ml) as indicated. The mean fluorescence intensity of ICAM-1 surface expression was measured. The experiment was conducted four times. The results shown are from a representative experiment. * p<0.01.
To determine whether ML-1 is able to induce ICAM-1 expression on NHBE cells, surface expression of ICAM-1 on NHBE cells was measured and the effects of ML-1 and IL-17 were compared.
NHBE cells were treated with IL-17 (100 ng/ml), ML-1 (100 ng/ml), or a control His protein (Positope, 100 ng/ml). The cells were harvested following treatment with 0.1% trypsin-0.02% EDTA at 37° C. for 6 minutes and suspended in PBS containing 2% BSA and 0.02 % sodium azide. One million cells were incubated with a mouse anti-human ICAM-1 monoclonal antibody (R&D Systems, Minneapolis, Minn.) on ice for 30 minutes. […] After three additional washes in PBS, the cells were resuspended in PBS and immediately analyzed with a FACScan flow cytometer (Becton Dickinson, Mountain View, Calif.). […] Indices are expressed as mean±SD (n=4).

ERK1/2 [1] = experiment: Western blotting of ERK1/2 phosphorylation in PBECs; conditions: ML-1 100 ng/ml
Procedure: (§1) FIGS. 6A-6D. Kinetic activation of ERK1/2 by ML-1 in PBECs (FIG. 6A) and HUVECs (FIG. 6B). The cells were incubated with or without ML-1 (100 ng/ml) for different time points as indicated. Western blotting analysis was performed by using antibodies against different MAP kinases as described in Example 8. FIGS. 6C and 6D. Effect of PD98059 on ML-1-induced phosphorylation of ERK1/2 in PBECs (FIG. 6C) and HUVECs (FIG. 6D). The cells were preincubated with PD98059 ([…]) or DMSO vehicle control for 1 hour, followed by stimulation of PBECs and HUVECs with medium or ML-1 for 20 minutes or 10 minutes, respectively. The results shown are representative of three separate experiments.
(§2) For analysis of activation of MAP kinases, PBECs were treated with IL-17 (100 ng/ml) for various time periods, with or without the MEK 1/2 inhibitor PD98059 ([…]; Calbiochem, La Jolla, Calif.) (15), the p38 inhibitor SB202190 (0.5-10 μM; ref. 16), or a vehicle control, DMSO (Me2SO) for 1 hour. […] Following the treatment, the cells were washed with ice-cold PBS. Cell pellets were immediately lysed in cold lysis buffer [20 mM Tris (pH 7.4), 4 mM EDTA, 2 mM EGTA, 1 mM PMSF, […] aprotinin, 200 mg/ml leupeptin, 50 mM NaF, 5 mM NaRP2O7, 1 mM Na3VO4, and 1% Nonidet P40; all purchased from Sigma]. Extracts (1×10^6 cell equivalents/lane) were suspended with an equal volume of 2× loading buffer [0.1 M Tris-HCl (pH 6.8)], 4% SDS, 0.005% bromophenol blue, and 20% glycerol) containing 2-ME (0.7 M) and subjected to 4-20% Tris-glycine gel electrophoresis (NOVEX, San Diego, Calif.). Gels were then transferred to PVDF membranes (BIO-RAD, Hercules, Calif.) with a Trans Blot apparatus (NOVEX). The membranes were immersed overnight in This-buffered saline/Tween 20 containing 5% nonfat dry skim milk (Carnation, Los Angeles, Calif.).
(§3) Immunoreactive proteins were detected using antibodies against various kinases and phosphorylated kinases. […] Western blotting detection reagents (Amersham) and Hyper ECL luminescence detection film (Amersham) were used. […]

ERK1/2 [2] = experiment: Western blotting of ERK1/2 phosphorylation in HUVECs; conditions: ML-1 100 ng/ml
Procedure: as §1, §2, §3

JNK = experiment: Western blotting of JNK activation in ML-1-stimulated cells; conditions: any time point, FIG. 6A (PBECs)
Procedure: as §1
For analysis of activation of MAP kinases, PBECs were treated with IL-17 (100 ng/ml) for various time periods, with or without the MEK 1/2 inhibitor PD98059 ([…]; Calbiochem, La Jolla, Calif.) (15), the p38 inhibitor SB202190 (0.5-10 μM; ref. 16), or a vehicle control, DMSO (Me2SO) for 1 hour. […] Following the treatment, the cells were washed with ice-cold PBS. […]
as §3

B1: ML-1: new member of the IL-17 cytokine family, SEQ ID NO:2; His-tagged recombinant protein expressed in COS-7 cells and affinity purified (protein, listed as Homo sapiens)
chain: MKLDIGIINENQRVSMSRNIESRSTSPWNYTVTWDPNRYPSEVVQAQCRNLGCINAQGKEDISMNSVPIQQETLVVRRKHQGCSVSFQLEKVLVTVGCTCVTPVIHHVQ
modifications: His tag
- ICAM-1 surface expression, mean fluorescence intensity (MFI) (ICAM-1): 31.42±4.39
- time of maximum phosphorylation of ERK1/2 (ERK1/2 [1]): 20 min
- time of return of ERK1/2 phosphorylation to baseline levels (ERK1/2 [1]): ≤ 60 min
- time of maximum phosphorylation of ERK1/2 (ERK1/2 [2]): 10 min
- time of return of ERK1/2 phosphorylation to baseline levels (ERK1/2 [2]): ≤ 60 min
- activation of JNK kinase (JNK): No activation
